Reference: patent EP4653467A1 (Wuhan Zhaozhi Biotechnology Co., Ltd., dated 2025)

Target: T1, CD22 on RAJI cells (UniProt P20273 20-847, limits assumed)
T1 sequence (looked up): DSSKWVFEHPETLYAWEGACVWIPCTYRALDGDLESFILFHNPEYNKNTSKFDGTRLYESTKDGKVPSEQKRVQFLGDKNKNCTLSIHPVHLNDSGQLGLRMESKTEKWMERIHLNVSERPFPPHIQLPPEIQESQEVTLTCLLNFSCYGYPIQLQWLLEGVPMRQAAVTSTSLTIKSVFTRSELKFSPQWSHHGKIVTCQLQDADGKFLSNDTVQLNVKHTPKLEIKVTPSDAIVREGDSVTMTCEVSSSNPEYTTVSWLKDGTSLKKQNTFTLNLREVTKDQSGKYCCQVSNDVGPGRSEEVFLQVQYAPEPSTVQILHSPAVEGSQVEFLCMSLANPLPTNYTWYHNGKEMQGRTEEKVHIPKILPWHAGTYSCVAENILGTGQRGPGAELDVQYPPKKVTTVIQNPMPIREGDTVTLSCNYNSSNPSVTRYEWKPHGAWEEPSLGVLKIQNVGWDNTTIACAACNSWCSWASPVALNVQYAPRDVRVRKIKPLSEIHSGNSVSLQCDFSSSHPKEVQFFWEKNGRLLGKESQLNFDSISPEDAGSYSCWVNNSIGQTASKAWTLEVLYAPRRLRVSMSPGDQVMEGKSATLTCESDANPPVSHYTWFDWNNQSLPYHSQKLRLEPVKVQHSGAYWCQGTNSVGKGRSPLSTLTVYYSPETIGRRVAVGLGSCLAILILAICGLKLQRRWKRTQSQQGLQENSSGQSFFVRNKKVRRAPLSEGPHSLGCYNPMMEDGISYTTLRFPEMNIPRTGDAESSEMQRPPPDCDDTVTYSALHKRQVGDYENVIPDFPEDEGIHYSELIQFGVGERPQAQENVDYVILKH
Test: cell-based or functional assay

B1: CAR22 (CAR molecule targeting CD22) (other)
chain: MALPVTALLLPLALLLHAAIPDTEVQLVESGGGLVKPGGSLKLSCAASGFAFSIYDMSWVRQTPEKRLEWVAYISSGGGTYYPDTVKGRFTISRDNAKNTLYLQMSSLKSEDTAMYYCARHSGYGTHWGVLFAYWGQGTLVTVSAGGGGSGGGGSGGGGSDIQMTQTTSSLSASLGDRVTISCRASQDISNYLNWYQQKPDGTVKLLIYYTSILHSGVPSRFSGSGSGTDYSLTISNLEQEDFATYFCQQGNTLPWTFGGGTKLEIKATTTPAPRPPTPAPTIASQPLSLRPEACRPAAGGAVHTRGLDFACDFWVLVVVGGVLACYSLLVTVAFIIFWVRSKRSRLLHSDYMNMTPRRPGPTRKHYQPYAPPRDFAAYRSKRGRKKLLYIFKQPFMRPVQTTQEEDGCSCRFPEEEEGGCELRVKFSRSADAPAYQQGQNQLYNELNLGRREEYDVLDKRRGRDPEMGGKPRRKNPQEGLYNELQKDKMAEAYSEIGMKGERRRGKGHDGLYQGLSTATKDTYDALHMQALPPR
  target cell lysis (calcein release), CAR-T cells on RAJI positive target cells, effector-to-target ratio 2:1: 11.5%
  target cell lysis (calcein release), CAR-T cells on RAJI positive target cells, effector-to-target ratio 10:1: 46.9%
  target cell lysis (calcein release), CAR-T cells on RAJI positive target cells, effector-to-target ratio 50:1: 94.4%
